Results as given in the supplement of paper PMC7125110.
± gives the standard error. Fewer inactive variants are shown than the library holds.

B1: glmS ribozyme (parent)
chain: AUAAAAGCGCCAGAACUACAGAAAUGUAGUUGACGAGGAGGAGGUUUAUCGAAUUUUCGGCGGAUGCCUCCAAA

Variants of: B1
Assay: self-cleavage kobs at 2500 uM GlcN6P; higher = faster cleavage; RNA array
Conditions: with glucosamine-6-phosphate
Method in brief: (§1)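 Tracking of barcoded ribozyme variants used a hybridised Cy3 probe at 37 °C, after in situ transcription by E. coli RNA polymerase on sequenced MiSeq chips. The flowed solution held 40 μM to 10 mM glucosamine-6-phosphate in HEPES/KCl/Mg(OAc)2 buffer, and imaging ran over ~14 h. kobs was taken from exponential decay fits of normalised per-tile medians, and kcat and KM from weighted Michaelis–Menten fits.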

| Variant | self-cleavage kobs at 2500 uM GlcN6P [s⁻¹] |
| --- | --- |
| C8U G43U G62C C68U | < 1e-05 |
| A6U G44U G63C | < 1e-05 |
| A12U G44C C61G | < 1e-05 |
| G41U U54G U56G G60A C70A | 7.76e-05 ± 2.1e-05 |
| A33C G38A C58U U65C | < 1e-05 |
| C11G A33U U46G G51C U54A | < 1e-05 |
| G32C A48U C68U | < 1e-05 |
| A48U G60C G63C C71U | < 1e-05 |
| C10G G13C A14G U31C U47A | < 1e-05 |
| C10G G63C G66U | < 1e-05 |
| G44C A48G A53C G59U | < 1e-05 |
| A14U G43C A53U G59C | < 1e-05 |
| G38A A39U G43C A48U U55C C70A | < 1e-05 |
| G37A U65G C67A | 4.8e-05 ± 1.1e-05 |
| G29U U54A C70A | 6.05e-05 ± 3e-05 |
| G7C G32U U45C U49C | < 1e-05 |
| C10U G40A A52C G60U | < 1e-05 |
| U46A C67G C68U | 0.000113 ± 5.1e-05 |
| A12G G40A G60A U69G | < 1e-05 |
| A14C A39U G41U U65G | < 1e-05 |
| A15U G35U C67G | < 1e-05 |
| A6U G7C C8G | < 1e-05 |
| A15C U31C G41C U57G | < 1e-05 |

| Variant | self-cleavage kobs at 2500 uM GlcN6P [s⁻¹] |
| --- | --- |
| G43C G66U C67A | 0.000168 ± 5.2e-05 |
| C11G A33U U47G | < 1e-05 |
| U55A C61A C68A | 0.00152 ± 0.00071 |
| C10A G13U U56C U69G | < 1e-05 |
| A12G A53G U69C | 0.000297 ± 0.00012 |
| G13C A36G A64U C70G | < 1e-05 |
| A12U U31G U69A | 0.000111 ± 4.9e-05 |
| C8G A39C C58U | < 1e-05 |
| G7C G37A G63U | < 1e-05 |
| A15C G51A C70G | 6.1e-05 ± 2.9e-05 |
| U31A C34G A48G | < 1e-05 |
| A14U G29C G44U | < 1e-05 |
| G37U A53U U57A | < 1e-05 |
| C10U A42C G43U C67A | < 1e-05 |
| A6C C34A A39G U45A | < 1e-05 |
| G29A G35U A53U | < 1e-05 |
| G7U C11U A12U G38C G43U U54A | < 1e-05 |
| G9A G29C G37U A48G A52C C70G | < 1e-05 |
| G29C G44C C50U G66U | < 1e-05 |
| A15C G32C U55C U57C U65C | < 1e-05 |
| G7U G9U U31C U56C | < 1e-05 |
| A14U C50A A53G C70A | 7.44e-05 ± 1.4e-05 |
| G7A A14G G38A | < 1e-05 |

| Variant | self-cleavage kobs at 2500 uM GlcN6P [s⁻¹] |
| --- | --- |
| G40A A48U C58A G60A | < 1e-05 |
| G41U A52U U55A C70U | 6.63e-05 ± 1.6e-05 |
| C8U U54A C58G | < 1e-05 |
| A6C A15U G43A C71U | < 1e-05 |
| A15U G44A A48C U56A C70A | < 1e-05 |
| G51C G66A | < 1e-05 |
| A12U A36C G40U U46A C61G | < 1e-05 |
| A15G C50G | 8.29e-05 ± 3.5e-05 |
| G29U G38U G66U C68A U69G | 0.000147 ± 5.8e-05 |
| G13A A33U A53C | < 1e-05 |
| A12U C34A G35A U49G | < 1e-05 |
| A39U A48G U57A G60U C70G | < 1e-05 |
| A20C A48G | 0.000134 ± 2.6e-05 |
| A15G U57A C68A | 5.07e-05 ± 1.9e-05 |
| A14U C50U G63C | < 1e-05 |
| A53U C67A C70A | 5.59e-05 ± 2.7e-05 |
| A6U A12U U46C C50U | < 1e-05 |
| A12U A42G A64U | 6.81e-05 ± 2.1e-05 |
| G51C G59A C71U | < 1e-05 |
| A33G U47A A52C C70A | < 1e-05 |
| A14C G29C U30C A52U U65A | < 1e-05 |
| G43U G63U C68G | < 1e-05 |
| A14G C16U A53U | 0.0165 ± 0.0044 |

| Variant | self-cleavage kobs at 2500 uM GlcN6P [s⁻¹] |
| --- | --- |
| A33C U56C G63U | < 1e-05 |
| G13U C67U C70U | 6.19e-05 ± 2.3e-05 |
| U31C A53C U55C | 0.000164 ± 5e-05 |
| G40U U49A A64U C70U | < 1e-05 |
| C11G U56G G59U | 4.72e-05 ± 2e-05 |
| U57C G66A | 4.71e-05 ± 1.3e-05 |
| A12C G29U U65A | 0.000175 ± 4.1e-05 |
| G38A C50G G59U C61A C67G | 8.22e-05 ± 2.2e-05 |
| G32A G35A C61A G63A C70U | < 1e-05 |
| A12C U56G A64C | 6.67e-05 ± 2.1e-05 |
| C8A A14G C68U C70G | < 1e-05 |
| G41A U45A C71U | 9.76e-05 ± 2.1e-05 |
| A39C G40A | 0.000126 ± 3.1e-05 |
| A33U U46G A48G A64C C70U | < 1e-05 |
| A14C G29C G44C U49G G59C C71U | < 1e-05 |
| U46G C61A | < 1e-05 |
| G7C G9C C61G G62U | < 1e-05 |
| G43A A53U U56G G62U | < 1e-05 |
| C34G G35A U49C | < 1e-05 |
| G7C C50U A64C C68A | < 1e-05 |
| G43U C68A C70U C71A | 9.92e-05 ± 2.8e-05 |
| U47G U57C C68A | 8.58e-05 ± 3.6e-05 |
| G41A U55A U57C A64U | < 1e-05 |

| Variant | self-cleavage kobs at 2500 uM GlcN6P [s⁻¹] |
| --- | --- |
| A33C A53C C61G | < 1e-05 |
| U31G G32A A33C G41A A48G | < 1e-05 |
| A12G U46G C71A | 5e-05 ± 2e-05 |
| A15C A42G C70G | 7.41e-05 ± 1.9e-05 |
| G29A G38U G40A A42C | < 1e-05 |
| G13U A39G U47G C71A | 5.73e-05 ± 1.7e-05 |
| G32U A42G U55C U56C C58G | 5.49e-05 ± 1.3e-05 |
| C11A A52G C70U | 8.24e-05 ± 3.2e-05 |
| G13C G29C U55A | 8.97e-05 ± 2.5e-05 |
| G29A G60U C71A | < 1e-05 |
| C11U U30C A52G A64U | < 1e-05 |
| G41C U45A U56G C67G C70G | 0.00118 ± 0.00023 |
| G41A U47G C70G | 9.9e-05 ± 3.6e-05 |
| G32C G37C C50A G60C | < 1e-05 |
| A42G G51U C67U | < 1e-05 |
| A42C G51A A64U C68G | < 1e-05 |
| A42U U54C C70A | 7.14e-05 ± 2.1e-05 |
| U54G C67G C70U C71U | 0.000105 ± 1.9e-05 |
| U47G U56C C71A | 5.07e-05 ± 2.5e-05 |
| G9C C10A G32A | < 1e-05 |
| C16U G38A G66A | < 1e-05 |
| G13U C19A C70U | 0.000171 ± 2.8e-05 |
| A15G U55A A64U | 9.74e-05 ± 1.8e-05 |

| Variant | self-cleavage kobs at 2500 uM GlcN6P [s⁻¹] |
| --- | --- |
| A14C C16A A42G | 5.08e-05 ± 2e-05 |
| U31C G35A A48C | < 1e-05 |
| G29C G41A | 7.06e-05 ± 3.1e-05 |
| G7C G13U U31G G37C G59A G60U | < 1e-05 |
| G41C G51C U56A G62A | < 1e-05 |
| G29A C50A C67G | 8.63e-05 ± 3.6e-05 |
| A33G G59C C68U | < 1e-05 |
| C10G G41U G59C G60C | < 1e-05 |
| U30G C34A C68U | < 1e-05 |
| A12C U30A C50U G51C | < 1e-05 |
| G35A C50A U57G | < 1e-05 |
| A33G U46G C70U | < 1e-05 |
| A12G A48G U55C U57G | < 1e-05 |
| G38C C58U G66A | < 1e-05 |
| C11G A12C G38U C50U | < 1e-05 |
| C10U A36G G41U G59U C68A | < 1e-05 |
| U30G G40C U46G | 4.32e-05 ± 1.4e-05 |
| C10U A12G A15G G29C C34A | < 1e-05 |
| A15U G29U U55A | 0.00225 ± 0.00062 |
| G13A G40C G60A U65A | < 1e-05 |
| G38A U49A C50A | < 1e-05 |
| U47C U54A C70U | 0.00241 ± 0.00052 |
| A6U C16U A53G C71G | 5.25e-05 ± 2.3e-05 |

| Variant | self-cleavage kobs at 2500 uM GlcN6P [s⁻¹] |
| --- | --- |
| G7U G59A C61U | < 1e-05 |
| G35U G60A C70G | < 1e-05 |
| G7A A36G G38A U47G A53G | < 1e-05 |
| U31A A36U G59A | < 1e-05 |
| G37A G60U | < 1e-05 |
| G13A U30A G32U | 7.99e-05 ± 1.7e-05 |
| C8G C58G | < 1e-05 |
| C16G G41U C50G | < 1e-05 |
| C16G C34U A36C | < 1e-05 |
| G35C C50A A52U | < 1e-05 |
| A12C U31A U47C C67U | 5.13e-05 ± 2.1e-05 |
| A48C U49C G59C | < 1e-05 |
| C8U G32C C70U | < 1e-05 |
| A14C G40U U47C A53G C61A C70U | < 1e-05 |
| A15G G60U G63C | < 1e-05 |
| C16A C34A U65A | < 1e-05 |
| A12G G40U U46A C58U | < 1e-05 |
| G9A U56G G60A | < 1e-05 |
| A36G U45G C67A | < 1e-05 |
| A33G A36U U65G | < 1e-05 |
| G37U G44U C58A C71A | < 1e-05 |
| A15G G35C G37C U49C | < 1e-05 |
| A1C U57C | 9.88e-05 ± 2.4e-05 |

Variants of: B1
Assay: self-cleavage kobs at 10000 uM GlcN6P; higher = faster cleavage; RNA array
Conditions: with glucosamine-6-phosphate
Method in brief: as §1

| Variant | self-cleavage kobs at 10000 uM GlcN6P [s⁻¹] |
| --- | --- |
| A14C A39U G41U U65G | < 1e-05 |
| C10U A42C G43U C67A | < 1e-05 |
| A15C G32C U55C U57C U65C | < 1e-05 |
| G41U A52U U55A C70U | 9.97e-05 ± 2.6e-05 |
| G51C G66A | < 1e-05 |
| U57C G66A | 0.000102 ± 1.5e-05 |
| A12C G29U U65A | 0.000443 ± 7.6e-05 |
| U46G C61A | < 1e-05 |
| A15C A42G C70G | 4.12e-05 ± 1.7e-05 |
| G29A G38U G40A A42C | < 1e-05 |
| G29C G41A | 5.29e-05 ± 2.1e-05 |
| A33G U46G C70U | < 1e-05 |
| G37A G60U | < 1e-05 |
| C16G G41U C50G | < 1e-05 |
| C16A C34A U65A | < 1e-05 |
